# Experiments:
# Assay in all cases: EMSA
# Conditions in all cases: EMSA: 200 ng protein, 5 ng 3'-biotin-labeled promoter DNA, 6% DNA retardation gel, 100 V at 4 C; binding buffer, salt and pH not stated
# [1] = biological target: T1, MqsA-F (Escherichia coli) (UniProt Q46864)
# T1 sequence: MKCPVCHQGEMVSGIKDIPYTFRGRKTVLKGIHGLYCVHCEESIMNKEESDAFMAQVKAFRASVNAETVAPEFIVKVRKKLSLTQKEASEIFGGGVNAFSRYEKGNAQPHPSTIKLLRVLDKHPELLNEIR
# [2] = biological target: MqsR;MqsA-F (Escherichia coli;Escherichia coli) (UniProt Q46865+Q46864)
# Chain of MqsR;MqsA-F (Escherichia coli;Escherichia coli) (Q46865 whole entry, one chain of several): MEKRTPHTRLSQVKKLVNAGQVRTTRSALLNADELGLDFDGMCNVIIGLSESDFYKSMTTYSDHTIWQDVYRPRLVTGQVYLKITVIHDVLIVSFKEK
# [3] = biological target: MqsR;MqsA-N (Escherichia coli;Escherichia coli) (UniProt Q46865+Q46864)
# Chain of MqsR;MqsA-N (Escherichia coli;Escherichia coli) (Q46865 whole entry, one chain of several): as above
# [4] = biological target: T2, MqsA-N (Escherichia coli) (UniProt Q46864)
# T2 sequence: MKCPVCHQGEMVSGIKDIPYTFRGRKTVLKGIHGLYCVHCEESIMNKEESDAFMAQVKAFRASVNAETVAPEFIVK
# [5] = biological target: T3, MqsA-C (Escherichia coli) (UniProt Q46864)
# T3 sequence: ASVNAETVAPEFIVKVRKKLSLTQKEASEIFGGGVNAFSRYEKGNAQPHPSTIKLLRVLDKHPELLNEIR
Sequence,binding [1],binding [2],binding [3],binding [4],binding [5]
CAGTCATCCGGTATAGTTCTTCATAATCTCTGCAAAATCATCGTGTTGTAATATTCTCTCATCACTCTCCATCAAATTTTCTTTTTTTCTCCATAATTGGCGCAAAAGTGTTTTTTACACTTTCATTGTTTTACCGTTGCTCTGATTAATTGACGCTAAAGTCAGTAAAGTTAATCTCGTCAACACGGCACGCTACTTAAGAAAGCCGTAATAAATAACTGAAAGGAAGGATATAGAATATGCGTAAATTAACTGCACTGTTTGTTGCC (double strand) [Pspy],binds,–,–,–,–
CCTGCAGAGTCAAACTGACATGTTTCATTTTTCCCGTTCCAGGCATTTTAATTCCTTCGCGTGTTTTCTGTCCAACCCTGCCTGCATGGCAGAAGGAATTCACCTGGTGTATTAAAGTGAATAATCATAAACCACTCACCTTTGTTGTTATTAGCAGCAGAACAATGATGTGGTTAGTTAATTAAAGCTGAAAATAAGCTTTTTGCCTGGATTTTTATGGCGGCTTACGCCGCCGTTGAAACTTTAATCATCACCCGCCACGCGGATCACCACTTTGC (double strand) [PmcbR],binds,–,–,–,–
CGGGTTAGTGCTAGTATGAAAAAGTGAGTCCTGTCCCGCTTCCTTCCTAATTGTAATTTTTCGTAATAATGCGATGAAAACCTGCAAAGAGTGGCTTATAGTTAAGCTAACAAACGAGAGGGCAAGTCCAGGTCAGTAAGTTTTTTCCATCCCGAAAGGTGTCCGTTAGTTCAACCGCTAAGAAGGGGACGCGTTATGGATGAATACTCACCCAAAAGACATGATATCGCACAGCTTAAGT (double strand) [PtomB],no binding,no binding,–,–,–
CGTGTATGTGGTGTGCGTTTTTCCATAACCCCCGCCTCCCTGTTACTTTAGTTATAACCTAAAAGGTTAATTACAGCAATGAAAAAGCACCTAAAAGGTTAGTTAGATGTACGGAGATAGTGACCACACAAAACGTATTCTTTAAGGAAAGTGATTGACCATATAAGAAAGTGGCGCATTAGTAGCGCCAGTTTGAAGCAGGAATTTATAAGGGAAGCTGGAGTCAGGCATCAC (double strand) [PmqsR],binds,binds,no binding,no binding,binds

# Reference: article PMC2791442
